# Measured values: FireProtDB (doi:10.1021/bi049320b)
# B1: Barstar wild type, P11540 (protein)
# chain: MKKAVINGEQIRSISDLHQTLKKELALPEYYGENLDALWDCLTGWVEYPLVLEWRQFEQSKQLTENGAESVLQVFREAKAEGCDITIILS
# Conditions: Bacillus amyloliquefaciens, pH 8, 25 °C, Urea, Fluorescence, Tris-HCl 30 mM, whole UniProt chain shown
protein,measurement,setting,value
B1,denaturant m value,KCl 0.5 M,1.12 kcal/mol/M
same,unfolding free energy,KCl 0.5 M,5.8 kcal/mol
same,denaturant m value,KCl 1.0 M,1.19 kcal/mol/M
same,unfolding free energy,KCl 1.0 M,6.9 kcal/mol
same,denaturant m value,,1.16 kcal/mol/M
same,unfolding free energy,,4.8 kcal/mol
